In US20090203886A1 (OSAKA UNIVERSITY, published 2009):
Where a chain is given by its changes, count along the chain named. Several values for one entry are separate records, joined by “and”; a condition that tells them apart may be missing. Equal values may be shown once. Values belong to the binder of their own block, whether it stands above or below them.

How the values were obtained:
human CD20 antigen [1] = target: T1, human CD20 antigen (human, UniProt P11836 1-297); experiment: Scatchard analysis on Raji cells, FITC anti human Fc secondary (Example 3)
T1 construct: whole, on cells; also called CD20 on Raji cells; CD20/CHO cells
T1 sequence (looked up): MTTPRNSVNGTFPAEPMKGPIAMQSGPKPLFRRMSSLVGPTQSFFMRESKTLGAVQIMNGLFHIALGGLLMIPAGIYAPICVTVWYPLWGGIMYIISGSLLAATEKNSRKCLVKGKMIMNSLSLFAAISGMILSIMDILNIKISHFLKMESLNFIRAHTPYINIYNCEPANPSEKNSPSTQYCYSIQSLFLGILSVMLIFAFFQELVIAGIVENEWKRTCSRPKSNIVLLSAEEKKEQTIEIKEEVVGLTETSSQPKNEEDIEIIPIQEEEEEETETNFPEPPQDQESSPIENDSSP
Protocol: (§1) The reaction solution was 1% BSA-PBS solution with a cell number of 5×10⁶ cells and was injected into a 1.5 ml tube to a final volume of 100 μl. Three samples for each test antibody were prepared and four tubes to which antibody was not added were prepared as samples for background calculations.
(§2) After the detecting step, an image was digitized using image analysis software Image Quant (Amersham Bioscience) and analyzed using Excel (Microsoft). Average values for the same test antibodies were calculated and the values for background calculation samples (when only reacting a cell with a FITC-labeled secondary antibody) were subtracted from the test antibody values. The background values derived for the FITC-labeled secondary antibody binding non-specifically to cells, the PBS solution and the plate are omitted. At the same time, a standard curve was prepared by measuring the amount of fluorescence of only FITC-labeled secondary antibodies at amounts of 0, 12.5, 25, 50, 75, 100, 125, and 150 ng per 100 μl. In this manner, the number of moles of secondary antibody binding to cells was calculated. Assuming that each primary antibody and the FITC-labeled secondary antibody react at a ratio of […], the amount of cell-bound primary antibody was calculated. Primary antibody in suspension was calculated by subtracting the bound amount from the added amount. Scatchard analysis was performed using these values in order to calculate a dissociation constant Kd.

human CD20 antigen [2] = target: T1, human CD20 antigen; experiment: Scatchard analysis on Raji cells (Example 3), average over the clones of the construct
Protocol: as §1, §2

human CD20 antigen [3] = target: T1, human CD20 antigen; experiment: cell-based or functional assay
human CD20 antigen [4] = target: T1, human CD20 antigen; experiment: cell-based or functional assay; remark: listed apart in the source
human CD20 antigen [5] = target: T1, human CD20 antigen; experiment: cell-based or functional assay; remark: listed apart in the source
human CD20 antigen [6] = target: T1, human CD20 antigen; experiment: Scatchard analysis on Raji cells, FITC secondary antibody fluorescence (Example 2)
Protocol: The mixture was shaken for one hour at room temperature while shielding against light and primary antibodies binding to cells were detected. After the reaction, the mixture was centrifuged at 3,000 rpm for three minutes and the cells were recovered. The cells were suspended in 200 μl of PBS to remove unreacted FITC-labeled anti murine IgG (H&L) antibody remaining on the cell surface and then centrifuged at 3,000 rpm for three minutes to remove the supernatant. This operation was repeated twice.
After the detection step, the image was digitized using image analysis software Image Quant (Amersham Bioscience) and analyzed using Excel (Microsoft). Background values for the plate, the PBS solution and FITC-labeled secondary antibody displaying non-specific binding to cells were determined. Then a value for the reaction only between the cells and the FITC-labeled secondary antibodies was obtained. Average values for those four points were subtracted from the fluorescent intensity value for each sample in order to obtain the amount of fluorescence of cell-conjugated FITC-labeled secondary antibody. A standard curve was prepared by measuring the amount of fluorescence at various concentrations of control cell-conjugated FITC-labeled secondary antibodies. Thus the amount of cell-conjugated secondary antibody (number of moles or weight) was calculated. The amount of cell-conjugated primary antibody was calculated assuming that each primary antibody and the FITC-labeled secondary antibody react at a ratio of 1:2. Primary antibody in suspension was calculated by subtracting the cell-conjugated amount from the added amount. When calculating the antibody concentration as a molar concentration, the molecular weight of the monoclonal was taken to be 150,000.
Scatchard analysis was used to calculate the antigen number and dissociation constant (Kd value) refer to Scatchard, G.; Ann. N.Y. Acad.

human CD20 antigen [7] = target: T1, human CD20 antigen; experiment: cell-based or functional assay; remark: listed apart in the source

Kd (human CD20 antigen [1]): 14.7 nM
Kd (human CD20 antigen [2]): 14.7 nM
B1: humanized 1K1791 antibody sa (SdrL x AbbH) (antibody, V domains shown)
VH: QIQLVQSGSELKKPGASVKVSCKASGYTFTNFGVNWVRQAPGKGLEWMGWINTYTGEPSYAQGFTGRFVFSLDASVSTAYLQISSLKAEDTATYFCTRRTNYYGTSYYYAMDYWGQGTTVTVSS
VL: STVMTQSPDSLAVSLGERATINCKSSQSNSNDVAWYQQKPGQSPKVLIYFASNRYSGVPDRFSGSGYGTDFTLTISSLQAEDVAVYFCQQDYSSPLTFGAGTKLEIK
notes: Kappa, gamma 1 construct; also called hz1791 sa; Sa023

Kd (human CD20 antigen [1]): 10.7 nM and 9.17 nM
Kd (human CD20 antigen [2]): 9.94 nM
B2: humanized 1K1791 antibody av (AbbL x VenH) (antibody, V domains shown)
VH: B1 VH with S9P, V20I, R38K, E46K, Q62D, G63D, T65K, V69A, A92S
VL: B1 VL with N29V
notes: Kappa, gamma 1 construct; also called hz1791 av; Av004

CDC (10 ug/ml), RAJI (human CD20 antigen [3]): 78 relative, c2B8 = 100
CDC (10 ug/ml), RC-K8 (human CD20 antigen [3]): 713 relative, c2B8 = 100
CDC (10 ug/ml), SUDHL4 (human CD20 antigen [3]): 111 relative, c2B8 = 100
CDC (10 ug/ml), WIL2NS (human CD20 antigen [3]): 295 relative, c2B8 = 100
Apoptosis (5 ug/ml), DHL4 (human CD20 antigen [4]): 143 relative, m2B8 = 100
Apoptosis (5 ug/ml), RAJI (human CD20 antigen [4]): 205 relative, m2B8 = 100
Apoptosis (5 ug/ml), RCK8 (human CD20 antigen [4]): 93 relative, m2B8 = 100
Apoptosis (5 ug/ml), Wil2-NS (human CD20 antigen [4]): 100 relative, m2B8 = 100
Kd (human CD20 antigen [1]): 11.6 nM and 13.8 nM
Kd (human CD20 antigen [2]): 12.7 nM
B3: humanized 1K1791 antibody sf (SdrL x FraH) (antibody, V domains shown)
VH: B1 VH with R38K, E46K, Q62D, G63D, T65K, V69A, V76A, T91M
VL: B1 VL
notes: Kappa, gamma 1 construct; also called hz1791 sf; Sf043

Kd (human CD20 antigen [1]): 11.3 nM and 8.83 nM
Kd (human CD20 antigen [2]): 10.1 nM
B4: humanized 1K1791 antibody fa (FraL x AbbH) (antibody, V domains shown)
VH: B1 VH
VL: STVMTQSPSFLSASVGDRVTITCKASQSVSNDVAWYQQKPGQSPKVLIYFASNRYTGVPDRFSGSGYGTDFTLTISSLQAEDVAVYFCQQDYSSPLTFGAGTKLEIK
notes: Kappa, gamma 1 construct; also called hz1791 fa; Fa007

Kd (human CD20 antigen [1]): 6.84 nM and 8.67 nM
Kd (human CD20 antigen [2]): 7.76 nM
B5: humanized 1K1791 antibody af (AbbL x FraH) (antibody, V domains shown)
VH: B1 VH with R38K, E46K, Q62D, G63D, T65K, V69A, V76A, T91M
VL: B1 VL with N29V
notes: Kappa, gamma 1 construct; also called hz1791 af; Af021

Kd (human CD20 antigen [1]): 8.8 nM and 11.9 nM
Kd (human CD20 antigen [2]): 10.3 nM
B6: humanized 1K1791 antibody vs (VenL x SdrH) (antibody, V domains shown)
VH: B1 VH with E46K, V69A
VL: B1 VL with A19V, S25A, N29V, S56T, L73F, L78V, I106L
notes: Kappa, gamma 1 construct; also called hz1791 vs; Vs006

Capacity to Induce Apoptosis (Raji cells) (human CD20 antigen [5]): 60
Kd (human CD20 antigen [6]): 1.35 nM
B7: 1K0924 murine anti CD20 monoclonal antibody (antibody, mouse IgG2b, V domains shown)
VH: QVQLQQPGAELVKPGASVKMSCKASGYTFTSYNIHWVKQTPGQGLEWIGAIYPGNGDTSYNQKFKGKATLTSDKSSSTAYMQLSSLTSEDSAVYYCARMSTMITGFDYWGQGTTLTVSS
VL: QIVLSQSPAILSASPGEKVTMTCRASSSVSYMHWYQQRPGSSPKPWIYATSNLASGVPARFSGSGSGTSYYFTISRVEAEDAATYYCQQWNSNPPTHGGGTKLEIK
notes: also called m0924

Capacity to Induce Apoptosis (Raji cells) (human CD20 antigen [5]): 130
Kd (human CD20 antigen [6]): 3.39 nM
Cell growth inhibiting test on Raji cells, Absorption (492 nm) (human CD20 antigen [7]): 1.77 absorbance 492 nm
B8: 1K1422 murine anti CD20 monoclonal antibody (antibody, V domains shown)
VH: QVQLQQPGAELVKPGASVKMSCRASGYTFTNYNMHWIKQTPGQGLEWIGAIYPGSGDTSYNRKFKGKATLTADTSSSTAYMQFSSLTSADSAVYYCARFTYYYGGTYGAMDYWGQGTSVTVSL
VL: QIVLTQSPPIMSASLGEEITLTCSASSRVSYMLWYQQKSGTSPKLLIYSTSNLASGVPSRFSGSGSGTFYSLTISSVEAEDAADYYCHQWTSNPCTFGGGTKLEIK
notes: also called m1422

Capacity to Induce Apoptosis (Raji cells) (human CD20 antigen [5]): 30
Kd (human CD20 antigen [6]): 0.26 nM
B9: 1K1228 murine anti CD20 monoclonal antibody (antibody, mouse IgG1, V domains shown)
VH: QVQLQQPGAELVKPGASVKVSCKASGFTFTSYNLHWVKQTPGQGLVWIGAIYPGNGDTSYNQKFRGKATLTADISSSTAYMQLSSLTSEDSAVYYCARYYYGYDAMDYWGQGTSVTVSS
VL: EIILTQSPTTMAASPGEKITITCSASSSISSYYLRWYQQKPGFSPKVLIYRTSNLASGVPARFSGSGSGTSYSLTIGTMEAEDVATYYCQQGNTVPLTFGSGTKLEIK
notes: also called m1228

CDC (10 ug/ml), RAJI (human CD20 antigen [3]): 99 relative, c2B8 = 100
CDC (10 ug/ml), RC-K8 (human CD20 antigen [3]): 100 relative, c2B8 = 100
CDC (10 ug/ml), SUDHL4 (human CD20 antigen [3]): 119 relative, c2B8 = 100
CDC (10 ug/ml), WIL2NS (human CD20 antigen [3]): 529 relative, c2B8 = 100
B10: chimerized 1K1791 antibody (c1791) (antibody, V domains shown)
VH: QIQLVQSGPELKKPGETVKISCKASGYTFTNFGVNWVKQAPGKGLKWMGWINTYTGEPSYADDFKGRFAFSLEASANTAYLQINNLKNDDMSTYFCTRRTNYYGTSYYYAMDYWGQGTSVTVSS
VL: STVMTQTPKFLLVSAGDRVTITCKASQSVSNDVAWYQQKPGQSPKVLIYFASNRYTGVPDRFTGSGYGTDFTFTINTVQAEDLAVYFCQQDYSSPLTFGAGTKLELK
